Results on six molecules are retold here after patent US20260042834A1 (HBM ALPHA THERAPEUTICS, published 2026).

The target in one test is T1, human UCN3 peptide (human, UniProt Q969E3 120-157, not fully specified; biotin at N- or C-terminus in the ELISA).
T1 construct: also called hUCN3; hUCN3 (NT Biotin)
T1 peptide (looked up): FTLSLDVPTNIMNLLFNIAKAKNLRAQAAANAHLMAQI
The test is described as follows: ELISA, biotinylated hUCN3 on streptavidin plates. The procedure: (§1) Streptavidin (Thermo, Cat: 21125) was diluted in PBS with a concentration of 2 μg/mL. 100 μL of diluted streptavidin was added per well to ELISA microplates, and the plates were incubated overnight at 4° C. Plates were blocked with ELISA blocking solution (containing 2% w/v BSA, 0.05% (v/v) Tween-20, pH 7.4 PBS buffer) at 37° C. for 1 hour, and then incubated with either 1 μg/mL hUCN1 (NT Biotin), hUCN1 (CT Biotin), hUCN2 (NT Biotin), hUCN2 (CT Biotin), hUCN3 (NT Biotin), or hUCN3 (CT Biotin) for 1 hour at 37° C. […] 100 μl of TMB Substrate (Biopanda, Cat: TMB-S-003) was added, and the plates were incubated at room temperature for 15 minutes. 100 μL of ELISA stopping solution (Solarbio, Cat #: C1058) was then added to terminate the reaction, and the OD450 nm was determined by an ELISA plate reader (Molecular Devices, Spectra max 384 plus).
(In general: An ELISA detects its analyte on a solid surface through an enzyme-linked reagent.)

A further test concerns the target T2, human UCN2 peptide (human, UniProt Q96RP3 72-109, limits assumed, not fully specified; biotin at N- or C-terminus in the ELISA).
T2 construct: also called hUCN2; hUCN2 (NT Biotin)
T2 peptide (looked up): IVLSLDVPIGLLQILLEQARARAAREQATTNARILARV
Kind of test: ELISA, biotinylated hUCN2 on streptavidin plates. The procedure: as §1

In test [1] the target is T3, corticotropin-releasing hormone (CRH) peptide (human and mouse (same sequence), not fully specified).
T3 peptide: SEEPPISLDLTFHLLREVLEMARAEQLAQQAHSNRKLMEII
Kind of test: cell-based or functional assay.

In another test the target is T4, CRH (CT-Biotin) (human and mouse (same sequence), biotin on an added C-terminal K (CRH-K-Biotin)).
T4 construct: also called Peptide 4 (CRH-Biotin)
T4 peptide: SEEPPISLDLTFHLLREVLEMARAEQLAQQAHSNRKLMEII
The test is described as follows: ELISA, biotinylated CRH on streptavidin plate. The method, then:
(§2) Streptavidin (Thermo, Cat: 21125) was diluted in PBS to a concentration of 2 μg/ml. 100 μl of diluted streptavidin was added per well to ELISA microplates, and the plates were incubated overnight at 4° C. […] 100 μL of 3,3′,5,5′-tetramethylbenzidine (TMB) substrate (Biopanda, Cat: TMB-S-003) was added, and the plates were incubated at room temperature for 15 minutes. 100 μL of ELISA stopping solution (Solarbio, Cat #: C1058) was added to terminate the reaction, and the optical density at 450 nm (OD450 nm) was determined by an ELISA plate reader (Molecular Devices, Spectra max 384 plus).

The target in another test is T5, CRH (NT-Biotin) (human and mouse (same sequence), not fully specified; biotin at the N-terminus).
T5 peptide: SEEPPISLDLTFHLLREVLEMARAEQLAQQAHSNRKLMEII
The test is described as follows: ELISA, biotinylated CRH on streptavidin plate. The procedure: as §2

B1: PR302341-34 (antibody, human IgG1, kappa, V domains shown)
VH: QVQLVQSGAEVKKPGASVKVSCKASGYTFTDYFMKWVRQAPGQGLEWMGVINPNQGDIFYNQKFKGRVTMTVDKSISTAYMELSRLRSDDTAVYYCARGTDRALFAYWGQGTLVTVSS
VL: DVVMTQSPLSLPVTLGQPASISCRSGQSIVHSDANTYLEWYQQRPGQSPRLLIYKVSNRFSGVPDRFSGSGSGTDFTLKISRVEAEDLGVYYCFQGSHIPWTFGGGTKVEIKR
notes: Humanized, PTM-removed variant of PR302341
On to B1, for which the binding result with human UCN3 peptide and with human UCN2 peptide was “no binding (tested: 100 nM)” in each case.

B2: PR302341-48 (antibody, human IgG1, kappa, V domains shown)
VH: QVQLVQSGAEVKKPGASVKVSCKASGYTFTDYFMKWVRQAPGQGLEWMGVINPNQGDIFYNQKFKGRVTMTVDKSTSTAYMELSSLRSEDTAVYYCARGTDRALFAYWGQGTLVTVSS
VL: DVVMTQTPLSSPVTLGQPASISCRSGQSIVHSDANTYLEWYQQRPGQPPRLLIYKVSNRFSGVPDRFSGSGAGTDFTLKISRVEAEDLGVYYCFQGSHIPWTFGGGTKVEIKR
notes: as for B1
Regarding B2, the binding result in the test with human UCN3 peptide and with human UCN2 peptide was “no binding (tested: 100 nM)” throughout.

B3: PR302341-28 (antibody, human IgG1, kappa, V domains shown)
VH: QVQLVQSGAEVKKPGASVKVSCKASGYTFTDYFMKWVRQAPGQGLEWMGVINPNQGDIFYNQKFKGRVTMTVDKSISTAYMELSRLRSDDTAVYYCARGTDRALFAYWGQGTLVTVSS
VL: DVVMTQSPLSLPVTLGQPASISCRSGQSIVHSDGNTYLEWYQQRPGQSPRLLIYKVSNRFSGVPDRFSGSGSGTDFTLKISRVEAEDLGVYYCFQGSHIPWTFGGGTKVEIKR
notes: as for B1
Regarding B3, the binding result with human UCN3 peptide and with human UCN2 peptide was “no binding (tested: 100 nM)” each time.

B4: PR302341-60 (antibody, human IgG1, kappa, V domains shown)
VH: QVQLVQSGAEVKKPGASVKVSCKASGYTFTDYFMKWVRQAPGQRLEWMGVINPNQGDIFYNQKFKGRVTITRDTSASTAYMELSSLRSEDTAVYYCARGTDRALFAYWGQGTLVTVSS
VL: DVVMTQSPLSLPVTLGQPASISCRSGQSIVHSDANTYLEWYQQRPGQSPRLLIYKVSNRFSGVPDRFSGSGSGTDFTLKISRVEAEDLGVYYCFQGSHIPWTFGGGTKVEIKR
notes: as for B1
With B4, the binding result with human UCN3 peptide and with human UCN2 peptide was “no binding (tested: 100 nM)” throughout.

B5: PR006148 (antibody, human IgG1, kappa, V domains shown)
VH: EVQLVESGGVLVQPGGSLRLSCAASGFTFSSYWMTWVRQAPGKGLEWVANIKQDASEKYYVDSVKGRFTISRDNAKNSLFLQMNSLRAEDTAVYYCARTLIFDYWGQGTLVTVSS
VL: DIVMTQSPLSLPVTPGEPASISCRSSQSLLHSTGYNPLEWYLQKPGQSPQLLIYLGSNRASGVPDRFSGSGSGTDFTLKISRVEAEDVGIYYCMQTLQTPITFGQGTRLEIKR
notes: PTM-removal variant of PR004290
On to B5, for which, in test [1], the “hCRHR1 Luciferase Reporter Assay IC50” value worked out at 2.5 nM. Further, the “mCrhr1 Luciferase Reporter Assay IC50” value in test [1] was 4.87 nM. Also, the EC50 (as a rule, the concentration giving half of the maximal effect) with CRH (CT-Biotin) was determined as 0.03 nM; with CRH (NT-Biotin), 0.035 nM.

B6: PR004290 (antibody, human IgG1, kappa, V domains shown)
VH: EVQLVESGGVLVQPGGSLRLSCAASGFTFSSYWMTWVRQAPGKGLEWVANIKQDGSEKYYVDSVKGRFTISRDNAKNSLFLQMNSLRAEDTAVYYCARTLIFDYWGQGTLVTVSS
VL: DIVMTQSPLSLPVTPGEPASISCRSSQSLLHSTGYNSLEWYLQKPGQSPQLLIYLGSNRASGVPDRFSGSGSGTDFTLKISRVEAEDVGIYYCMQTLQTPITFGQGTRLEIKR
notes: Series 1; human IgG1 wildtype Fc; also called hybridoma clone 28b3
As for B6, the binding result in the test with human UCN3 peptide and with human UCN2 peptide was “no binding (tested: 100 nM)” in each case.
